By Kd is commonly meant the equilibrium constant for the complex coming apart. Low values mean higher affinity, high ones lower affinity.

Drawing on paper PMC7110113, “Termination of non‐coding transcription in yeast relies on both an RNA Pol II CTD interaction domain and a CTD‐mimicking region in Sen1” (The EMBO Journal, 2020), this text covers Kd for 1 molecule.

Ends that are not written are not given here. FAM = 5,6-carboxyfluorescein

Holding throughout (assay): fluorescence polarisation; fluorescence anisotropy, equilibrium binding of Nrd1 CID variants to FAM-labelled NIM peptides; 10°C, 50 mM Na2HPO4, 100 mM NaCl, pH 8; 1:1 model with non-specific binding (DynaFit)
What all share (settings): both partners purified

One assay deals with T1, Nrd1 CID I130N (S. cerevisiae, UniProt P53617 1-153, I130N).
T1 construct: the construct for anisotropy is made as described previously (Kubicek et al, 2012); also called CID(I130N)-His6; source: recombinant, produced and purified as described previously (Kubicek et al, 2012); plasmid with T7 promoter
T1 sequence (looked up): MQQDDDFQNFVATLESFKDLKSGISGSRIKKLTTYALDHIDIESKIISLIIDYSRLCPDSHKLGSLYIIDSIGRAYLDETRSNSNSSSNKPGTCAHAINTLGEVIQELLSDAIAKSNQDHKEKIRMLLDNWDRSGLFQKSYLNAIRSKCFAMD

The target in the next assay is T2, Nrd1 CID I130K (S. cerevisiae, UniProt P53617 1-153, I130K).
T2 construct: the construct for anisotropy is made as described previously (Kubicek et al, 2012); also called CID(I130K)-His6; source: recombinant, produced and purified as described previously (Kubicek et al, 2012); plasmid with T7 promoter
T2 sequence (looked up): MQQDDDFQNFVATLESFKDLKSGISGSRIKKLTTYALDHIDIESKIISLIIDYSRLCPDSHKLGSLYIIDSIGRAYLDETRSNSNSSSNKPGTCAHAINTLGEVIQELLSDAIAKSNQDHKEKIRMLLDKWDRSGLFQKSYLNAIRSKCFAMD

Another assay concerns the target T3, Nrd1 CID M126A (S. cerevisiae, UniProt P53617 1-153, M126A).
T3 construct: source: recombinant, produced and purified as described previously (Kubicek et al, 2012)
T3 sequence (looked up): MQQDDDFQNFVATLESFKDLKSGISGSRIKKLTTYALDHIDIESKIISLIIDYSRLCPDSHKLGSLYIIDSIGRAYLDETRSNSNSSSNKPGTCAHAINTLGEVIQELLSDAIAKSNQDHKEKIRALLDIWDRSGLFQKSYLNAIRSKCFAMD

In a further assay the target is T4, Nrd1 CID I130A (S. cerevisiae, UniProt P53617 1-153, I130A).
T4 construct: the construct for anisotropy is made as described previously (Kubicek et al, 2012); also called CID(I130A)-His6; source: recombinant, produced and purified as described previously (Kubicek et al, 2012); plasmid with T7 promoter
T4 sequence (looked up): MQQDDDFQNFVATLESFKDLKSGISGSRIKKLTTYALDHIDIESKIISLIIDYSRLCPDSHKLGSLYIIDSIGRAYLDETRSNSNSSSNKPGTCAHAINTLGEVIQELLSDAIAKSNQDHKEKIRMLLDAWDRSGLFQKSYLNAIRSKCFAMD

For a further assay, the target named is T5, Nrd1 CID R133D (S. cerevisiae, UniProt P53617 1-153, R133D).
T5 construct: the construct for anisotropy is made as described previously (Kubicek et al, 2012); also called CID(R133D)-His6; source: recombinant, produced and purified as described previously (Kubicek et al, 2012); plasmid made with QuikChange, T7 promoter
T5 sequence (looked up): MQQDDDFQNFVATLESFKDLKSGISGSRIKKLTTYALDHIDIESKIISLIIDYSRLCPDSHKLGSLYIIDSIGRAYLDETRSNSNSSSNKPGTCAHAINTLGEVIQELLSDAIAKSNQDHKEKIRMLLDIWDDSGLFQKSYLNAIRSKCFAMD

Another assay concerns the target T6, Nrd1 CID K21D (S. cerevisiae, UniProt P53617 1-153, K21D).
T6 construct: the construct for anisotropy is made as described previously (Kubicek et al, 2012); also called CID(K21D)-His6; source: recombinant, produced and purified as described previously (Kubicek et al, 2012); plasmid with T7 promoter
T6 sequence (looked up): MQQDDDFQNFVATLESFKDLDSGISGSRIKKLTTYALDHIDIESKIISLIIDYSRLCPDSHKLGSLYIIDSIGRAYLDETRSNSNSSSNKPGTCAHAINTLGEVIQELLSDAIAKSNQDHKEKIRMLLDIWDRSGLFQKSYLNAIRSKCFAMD

A further assay addresses T7, Nrd1 CID L20D (S. cerevisiae, UniProt P53617 1-153, L20D).
T7 construct: the construct for anisotropy is made as described previously (Kubicek et al, 2012); also called CID(L20D)-His6; source: recombinant, produced and purified as described previously (Kubicek et al, 2012); plasmid with T7 promoter
T7 sequence (looked up): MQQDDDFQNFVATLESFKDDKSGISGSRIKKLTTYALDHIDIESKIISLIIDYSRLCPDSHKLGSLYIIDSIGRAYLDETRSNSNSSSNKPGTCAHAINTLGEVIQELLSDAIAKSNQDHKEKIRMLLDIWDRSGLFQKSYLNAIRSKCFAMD

B1: Sen1 NIM peptide (Sen1 aa 2,052-2,063) (peptide, UniProt Q00416 2052-2063, looked up)
peptide: {FAM}-DDDEDDYTPSIS
notes: Sen1, S. cerevisiae, fragment harbouring aa 2,052-2,063; source: synthetic peptide
For the molecule B1, the Kd worked out at 8.9 ± 0.5 µM with Nrd1 CID I130N; 36.7 ± 4.6 µM in the assay with Nrd1 CID I130K; 1.4 ± 0.07 µM with Nrd1 CID M126A; 7.6 ± 0.3 µM in the assay with Nrd1 CID I130A; 2 ± 0.1 µM with Nrd1 CID R133D; 8 ± 0.8 µM with Nrd1 CID K21D. Besides, the dissociation constant (Kd) with Nrd1 CID L20D stood at 16.9 ± 1.5 µM.
